{"source": "patent US10787640B2", "about": "“Producing mesodermal cell types and methods of using the same” (The Board of Trustees of the Leland Stanford Junior …, priority 2015, dated 2020)", "molecules": {"B1": {"name": "BMP4: BMP family ligand, BMP agonist (protein, UniProt P12644 293-408, looked up)", "Bone morphogenetic protein 4": "SPKHHSQRARKKNKNCRRHSLYVDFSDVGWNDWIVAPPGYQAFYCHGDCPFPLADHLNSTNHAIVQTLVNSVNSSIPKACCVPTELSAISMLYLDEYDKVVLKNYQEMVVEGCGCR"}}, "key": {"[1]": {"tested_on": "day 3 early somite progenitors", "test": "Patterning of early somite progenitors into sclerotome or dermomyotome", "assay_type": "cell-based, human", "protocol": "Day 2 paraxial mesoderm was briefly washed (DMEM/F12) and further differentiated into day 3 early somite/somitomere precursors for 24 hours (1 μM A-83-01+250 nM LDN-193189+1 μM C59+500 nM PD0325901). Subsequently, day 3 early somites were dorsoventrally patterned into either ventral somites/sclerotome (5 nM 21K+1 μM C59) or dorsal somites/dermomyotome (3 μM CHIR99021+150 nM Vismodegib). Sclerotome induction was conducted for 48-72 hours (leading to day 5-6 ventral somite progenitors). […] Media was changed 24 hours for all steps. The Hedgehog agonist 21K, which has been previously described in, e.g., Brunton et al., 2009 the disclosure of which is incorporated herein by reference in its entirety, was commercially synthesized.\nDay 3 early somites were briefly washed (DMEM/F12), treated with BMP4+CHIR99021+Vismodegib for 24 hours, washed again (DMEM/F12) and subsequently treated with CHIR99021 (3 μM)+21K (5 nM) for 24 hours. This day 5 dermomyotome was further empirically differentiated towards skeletal muscle-like progeny (using medium containing 2% horse serum, which has been previously described in, e.g., Xu et al. 2013, the disclosure of which is incorporated herein by reference in its entirety) for 12 days, yielding day 17 skeletal muscle-containing populations.\nFIG. 11: A) To determine the length of time required for sclerotome differentiation, a qPCR timecourse was performed, encompassing undifferentiated hESCs (D0), day 2 hESC-derived paraxial mesoderm (D2 PXM), day 3 hESC-derived early somite progenitors, and hESC-derived day 3 early somite progenitors that were exposed to sclerotome inductive conditions (5 nM 21K+1 μM C59) for 24 or 48 hours. B) Description of EF1α-BCL2-T2A-GFP lentiviral construct (otherwise known as “C306”; top) and FACS plot of a stably-transduced polyclonal H9 hESC line with near-uniform expression of the BCL2-T2A-GFP transgene (green contour) by comparison to uncolored wild-type hESCs (bottom) (see above methods for details of derivation of the H9 BCL2-T2A-GFP hESC line). C) Higher-magnification picture of BCL2-T2A-GFP hESC-derived sclerotome ectopic bone grafts (originally described above in FIG. 4, panel E), showing that despite the near-ubiquitous expression of GFP throughout the ectopic bone graft (indicating its human provenance), the blood vessels are clearly GFP-negative and therefore presumably derived from the mouse host; scale bar=1 mm. […] L) Description of EF1a-BCL2-T2A-GFP lentiviral construct (otherwise known as “C306”; top) and FACS plot of a stably-transduced polyclonal H9 hESC line with near-uniform expression of the BCL2-T2A-GFP transgene (green contour) by comparison to uncolored wild-type hESCs (bottom) (see the methods described herein for details of derivation of the H9 BCL2-T2A-GFP hESC line). M) Description of UBC-Luciferase-T2A-tdTomato lentiviral construct (top); bioluminescent assay of cultured H9 UBC-Luciferase-T2A-tdTomato hESCs validates that these cells are luciferase-expressing in vitro (bottom)."}, "[2]": {"tested_on": "day 5 hematopoietic intermediates", "test": "Day 5-7 continued differentiation of hematopoietic intermediates, factor withholding", "assay_type": "cell-based, human", "protocol": "SOX17^mCherry/+ H9 hESCs (referred to as SOX17-mCherry hESCs throughout this study) were routinely propagated in mTeSR1 (StemCell Technologies)+1% penicillin/streptomycin. They were passaged ˜1:12-1:25 as fine clumps using Accutase (Gibco) onto plates precoated with a Geltrex substratum (Gibco) in mTeSR1 medium supplemented with thiazovivin ([…]; a ROCK inhibitor). After overnight plating, hESCs were washed (DMEM/F12) and differentiated towards posterior PS using BMP4 (15-40 ng/mL, R&D Systems), CHIR99021 ([…]), FGF2 (20 ng/mL, Invitrogen) and PIK90 (100 nM, Calbiochem) for 24 hours, with the optional inclusion of Activin (30 ng/mL, R&D Systems) to induce mid PS. Day 1 mid or posterior PS was subsequently washed (DMEM/F12) and further differentiated using BMP4 (40 ng/mL), GDC-0941 (0.25-2.5 μM, Cellagen Technology), Forskolin (10 μM, Tocris), SB-505124 ([…]), VEGF (100 ng/mL, R&D Systems), XAV939 (1 μM, Tocris) and ascorbic acid-2-phosphate (200 μg/mL, Sigma) for 24 hours. Day 2 cultures were further directed into the definitive hematopoietic lineage/hemogenic precursors by Activin A (15 ng/mL), GDC-0941 (0.25-2.5 μM), VEGF (100 ng/mL), XAV939 (1 μM) and ascorbic acid-2-phosphate (200 μg/mL) for 24 hours. Day 3 definitive hematopoietic progenitors were subsequently differentiated into early Runx1^lowGfi1^low hemogenic intermediates through day 4-5 treatment with BMP4 (50 ng/mL), TTNPB (500 nM), VEGF (100 ng/mL) and XAV939 (1 μM) for 48 hours, supplemented with SB-505124 (2 μM) on day 5. Day 5 populations were then dissociated into single cells, counted and reaggregated in individual wells of a low-adhesion V-bottom or U-bottom 96-well plate (e.g., Thermo Fisher, catalog no. 249952) with ˜15,000-20,000 cells seeded per well. Aggregates were cultured for 48 additional hours until day 7 in BMP4 (50 ng/mL), TTNPB (500 nM), VEGF (100 ng/mL), XAV939 (1 μM), SB-505124 (2 μM), SCF (25-50 ng/mL, R&D Systems), IL6 (10 ng/mL, R&D Systems) and IL6RA (250-1000 ng/mL, R&D Systems). All differentiation was conducted in serum-free CDM2 fully-defined basal media."}}, "data": [{"molecule": "Cc1cnc(-c2cnc(NCCNc3ccc(C#N)cn3)nc2-c2ccc(Cl)cc2Cl)[nH]1", "note": "[CHIR99021, 6-[[2-[[4-(2,4-Dichlorophenyl)-5-(5-methyl-1H-imidazol-2-yl)-2-pyrimidinyl]amino]ethyl]amino]-3-pyridinecarbonitrile]", "values": [{"measurement": "dorsal somite marker PAX3 and sclerotome fate", "setting": "[1]; CHIR together with Vismodegib", "value": "sustained dorsal somite marker PAX3 while inhibiting the sclerotome fate"}]}, {"molecule": "Cc1cccc(-c2[nH]c(C(C)(C)C)nc2-c2ccc3c(c2)OCO3)n1", "note": "[SB-505124, 2-[4-(1,3-Benzodioxol-5-yl)-2-(1,1-dimethylethyl)-1H-imidazol-5-yl]-6-methyl-pyridine]", "values": [{"measurement": "GFI1B expression", "setting": "[2]; individually withholding the factor from the 8 factors, 48 hours", "value": "strongly diminished"}]}, {"molecule": "B1", "values": [{"measurement": "hematopoietic or venous gene expression", "setting": "[2]; withdrawal of the factor", "value": "minimally effected hematopoietic or venous gene expression"}, {"measurement": "PAX7 expression", "setting": "[1]; 3 μM CHIR99021+150 nM Vismodegib, 48 hours, BMP4 10 ng/mL", "value": "greatly enhances the expression of PAX7"}, {"measurement": "PAX7 induction in central dermomyotome", "setting": "[1]; CHIR99021+Vismodegib+BMP4, 24 hours", "value": "important to induce PAX7 in central dermomyotome"}]}]}
